# In patent US20210277118A1 (Daiichi Sankyo, published 2021):
# Where a chain is given by its changes, count along the chain named. Names may count otherwise.
# B1: variant 18346, monovalent anti-CD3 scFv-heterodimeric Fc (VL hC3E-1 wildtype, VH hC3E-1 wildtype) (Fc fusion)
# scFv: EVQLVESGGGLVQPGGSLRLSCAASGVTFNYYGMSWIRQAPGKGLEWVASITNSGGRIYYPDSVKGRFTISRENTQKTLYLQMNSLRAEDTAVYYCTLDGRDGWVAYWGQGTLVTVSSGGGGSGGGGSGGGGSNFMLTQPHSVSESPGKTVTISCKRNTGNIGSNYVNWYQQHEGSSPTTIIYRDDKRPDGVSDRFSGSIDRSSKSASLTISNLKTEDEADYFCQSYSSGFIFGGGTKLTVL
# notes: scFv order VH-(GGGGS)3-VL on Fc chain A; chain B is Fc only; also called v18346; parental construct v18346; not shown: Fc-only chain B is also left out
# B2: variant 18596, monovalent anti-CD3 scFv-heterodimeric Fc (VL hC3E-1, VH hC3E-1a D102E) (Fc fusion, not shown: a dimerising Fc or GST; small tags and cut ends)
# scFv: B1 scFv with D102E
# notes: scFv order VH-(GGGGS)3-VL on Fc chain A; chain B is Fc only; also called v18596
# B3: variant 21826, monovalent anti-CD3 scFv-heterodimeric Fc (VL hC3E-1 (D52N), VH hC3E-1(N53R_D102E)) (Fc fusion)
# scFv: B1 scFv with N53R, D102E, D185N
# notes: scFv order VH-(GGGGS)3-VL on Fc chain A; chain B is Fc only; also called v21826; not shown: Fc-only chain B is also left out
# B4: variant 21828, monovalent anti-CD3 scFv-heterodimeric Fc (VL hC3E-1 (D52N), VH hC3E-1(N53S_D102E)) (Fc fusion)
# scFv: B1 scFv with N53S, D102E, D185N
# notes: scFv order VH-(GGGGS)3-VL on Fc chain A; chain B is Fc only; also called v21828; not shown: Fc-only chain B is also left out
# B5: variant 19371, monovalent anti-CD3 scFv-heterodimeric Fc (VL hC3E-1_1L1c, VH hC3E-1) (Fc fusion)
# scFv: EVQLVESGGGLVQPGGSLRLSCAASGVTFNYYGMSWIRQAPGKGLEWVASITNSGGRIYYPDSVKGRFTISRENTQKTLYLQMNSLRAEDTAVYYCTLDGRDGWVAYWGQGTLVTVSSGGGGSGGGGSGGGGSQIVLTQPPSASGTPGQRVTISCKRNTGNIGSNYVNWYQQLPGTAPKLLIYRDDKRPDGVPDRFSGSKSGTSASLAISGLQSEDEADYYCQSYSSGFIFGGGTKLTVL
# notes: scFv order VH-(GGGGS)3-VL on Fc chain A; chain B is Fc only; also called v19371; not shown: The Fc-only chain B is not tied by number to this variant
# B6: variant 19372, monovalent anti-CD3 scFv-heterodimeric Fc (VL hC3E-1_1L1b, VH hC3E-1) (Fc fusion)
# scFv: B5 scFv with I135L
# notes: scFv order VH-(GGGGS)3-VL on Fc chain A; chain B is Fc only; also called v19372; not shown: The Fc-only chain B is not tied by number to this variant
# B7: variant 21827, monovalent anti-CD3 scFv-heterodimeric Fc (VL hC3E-1_1L1d, VH hC3E-1(N53S_D102E)) (Fc fusion)
# scFv: B5 scFv with N53S, D102E, I135V
# notes: scFv order VH-(GGGGS)3-VL on Fc chain A; chain B is Fc only; also called v21827; not shown: Fc-only chain B is also left out
# B8: variant 21829, monovalent anti-CD3 scFv-heterodimeric Fc (VL hC3E-1_1L1d, VH hC3E-1(N53R)) (Fc fusion)
# scFv: B5 scFv with N53R, I135V
# notes: scFv order VH-(GGGGS)3-VL on Fc chain A; chain B is Fc only; also called v21829; not shown: Fc-only chain B is also left out
# B9: variant 21831, monovalent anti-CD3 scFv-heterodimeric Fc (VL hC3E-1_1L1d, VH hC3E-1(N53S)) (Fc fusion)
# scFv: B5 scFv with N53S, I135V
# notes: scFv order VH-(GGGGS)3-VL on Fc chain A; chain B is Fc only; also called v21831; not shown: Fc-only chain B is also left out
# B10: variant 19363, monovalent anti-CD3 scFv-heterodimeric Fc (VL hC3E-1_6L3a (D52N), VH hC3E-1) (Fc fusion, not shown: a dimerising Fc or GST; small tags and cut ends)
# scFv: EVQLVESGGGLVQPGGSLRLSCAASGVTFNYYGMSWIRQAPGKGLEWVASITNSGGRIYYPDSVKGRFTISRENTQKTLYLQMNSLRAEDTAVYYCTLDGRDGWVAYWGQGTLVTVSSGGGGSGGGGSGGGGSQFVLTQPPSASGTPGQRVTISCKRNTGNIGSNYVNWYQQLPGTAPKTIIYRNDKRPDGVPDRFSGSIDSSSNSASLAISGLQSEDEADYYCQSYSSGFIFGGGTKLTVL
# notes: scFv order VH-(GGGGS)3-VL on Fc chain A; chain B is Fc only; also called v19363
# B11: variant 19362, monovalent anti-CD3 scFv-heterodimeric Fc (VL hC3E-1_6L3b (D52N), VH hC3E-1) (Fc fusion, not shown: a dimerising Fc or GST; small tags and cut ends)
# scFv: B10 scFv with Q134N, V136M, P141H, A143V, G145E, T146S, Q149K, R150T
# notes: scFv order VH-(GGGGS)3-VL on Fc chain A; chain B is Fc only; also called v19362
# B12: variant 19370, monovalent anti-CD3 scFv-heterodimeric Fc (VL hC3E-1_1L1d, VH hC3E-1) (Fc fusion, not shown: a dimerising Fc or GST; small tags and cut ends)
# scFv: B5 scFv with I135V
# notes: scFv order VH-(GGGGS)3-VL on Fc chain A; chain B is Fc only; also called v19370
# B13: variant 18343, monovalent anti-CD3 scFv-heterodimeric Fc (VL hC3E-1-1L1, VH hC3E-1) (Fc fusion, not shown: a dimerising Fc or GST; small tags and cut ends)
# scFv: B5 scFv with I135S
# notes: scFv order VH-(GGGGS)3-VL on Fc chain A; chain B is Fc only; also called v18343
# B14: variant 19373, monovalent anti-CD3 scFv-heterodimeric Fc (VL hC3E-1_1L1a, VH hC3E-1) (Fc fusion)
# scFv: B5 scFv with I135F
# notes: scFv order VH-(GGGGS)3-VL on Fc chain A; chain B is Fc only; also called v19373; not shown: The Fc-only chain B is not tied by number to this variant
# B15: variant 21825, monovalent anti-CD3 scFv-heterodimeric Fc (VL hC3E-1_1L1d, VH hC3E-1(N53R_D102E)) (Fc fusion)
# scFv: B5 scFv with N53R, D102E, I135V
# notes: scFv order VH-(GGGGS)3-VL on Fc chain A; chain B is Fc only; also called v21825; not shown: Fc-only chain B is also left out
# Target: T1, human CD3 expressed on T cells (Jurkat cells, human pan T cells/PBMC) (human, UniProt P07766 23-207)
# T1 construct: whole, on cells; On T cells CD3 epsilon stands in the CD3 complex with the gamma, delta and zeta chains and the T-cell receptor; only the epsilon chain is written out; also called CD3+ Jurkat cells; human T cells
# T1 sequence (P07766 23-207): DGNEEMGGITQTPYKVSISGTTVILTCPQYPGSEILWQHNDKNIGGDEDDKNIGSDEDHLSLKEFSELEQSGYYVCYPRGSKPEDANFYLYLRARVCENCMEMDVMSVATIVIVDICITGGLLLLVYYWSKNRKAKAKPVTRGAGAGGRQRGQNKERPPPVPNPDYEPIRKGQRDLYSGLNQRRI
# Assay: flow cytometry on human T cells
# Experimental: (§1) Frozen human pan T cells or PBMCs were thawed and incubated with either media or serial dilutions of the anti-CD3 scFv-Fc constructs for one hour at 4° C. Commercially available SP34-2 antibody was used as positive controls while untreated cultures were used as negative controls. Following incubation with the anti-CD3 scFv constructs, the cells were washed and stained with a panel of conjugated antibodies specific for CD4, CD8, and IgG-Fc. The samples were acquired on a flow cytometer and analyzed using FlowJo version 10.1 software.
row,Binder,EC50 [nM]
1,B1,~0.3
2,B2,69.5
3,B3,1.7
4,B4,1.6
5,B5,0.5
6,B6,0.9
7,B7,1.9
8,B8,0.4
9,B9,1
10,B10,0.7
11,B11,~0.6
12,B12,0.7

# Target: T2, Recombinant CD3epsilon/delta Fc fusion protein (Sino Biological) (human, UniProt P07766 23-126; P04234 22-105)
# T2 construct: Bought reagent; also called recombinant CD3 fusion protein; human CD3 antigen; not shown: Fc of the bought fusion protein; not described
# T2 sequence (P07766 23-126, stated change not applied, chain 1 of 2): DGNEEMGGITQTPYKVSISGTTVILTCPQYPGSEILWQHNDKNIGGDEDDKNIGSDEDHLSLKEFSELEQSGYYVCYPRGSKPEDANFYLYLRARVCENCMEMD
# T2 sequence (P04234 22-105, stated change not applied, chain 2 of 2): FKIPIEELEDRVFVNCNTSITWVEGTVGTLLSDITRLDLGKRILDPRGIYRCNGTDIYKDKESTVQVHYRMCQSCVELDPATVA
# Assay: SPR (ProteOn XPR36), Equilibrium Fit, mean of three runs
# Experimental: (§2) All SPR binding experiments were carried out using a BioRad ProteOn XPR36 instrument (Bio-Rad Laboratories, Hercules, Calif.) at 25° C. with 10 mM HEPES, 150 mM NaCl, 3.4 mM EDTA, and 0.05% Tween 20 at pH 7.4. Recombinant CD3epsilon/delta Fc fusion protein (Sino Biological, Wayne, Pa.) was captured on anti-Fc capture sensorchips. Purified antibodies were indirectly captured on the sensorchip by binding the recombinant CD3 fusion protein when injected at 25 μL/min for 240s (resulting in approx. 500 RUs) following a buffer injection to establish a stable baseline. Resultant KD values were determined from binding isotherms using the Equilibrium Fit model with reported values as the mean of three independent runs.
row,Binder,Kd [nM]
1,B1,0.26
2,B2,9
3,B13,30
4,B5,7.1
5,B6,3.1
6,B14,3
7,B8,3.06
8,B9,22.9
9,B10,6.6
10,B11,3
11,B12,6.8

# Target: T1, human CD3 expressed on T cells (Jurkat …)
# Assay: flow cytometry on human T cells gated CD4+, detection with anti-IgG-Fc, geo MFI
# Experimental: as §1
row,Binder,EC50 (read off the curve) [µg/mL]
1,B9,~1

# Target: T3, cynomolgus monkey CD3 expressed on T cells (cynomolgus pan T cells/PBMC, HSC-F cell line) (cynomolgus monkey, UniProt Q95LI5 22-198)
# T3 construct: whole, on cells; On T cells in the CD3 complex with the other subunits; only the epsilon chain is written out; also called cyno CD3; cyno T cells
# T3 sequence (Q95LI5 22-198): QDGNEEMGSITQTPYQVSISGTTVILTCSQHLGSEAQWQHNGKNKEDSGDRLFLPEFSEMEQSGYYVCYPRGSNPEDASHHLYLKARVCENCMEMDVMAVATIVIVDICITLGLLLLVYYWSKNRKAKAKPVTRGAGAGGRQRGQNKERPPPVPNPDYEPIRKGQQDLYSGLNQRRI
# Assay: flow cytometry on cynomolgus pan T cells gated CD4+, detection with anti-IgG-Fc, geo MFI
# Experimental: (§3) Frozen Cynomolgus monkey PBMCs were thawed then washed with RPMI-1640 media. Pan T cells were then isolated from the PBMCs using a negative isolation kit (Miltenyi Biotec, San Diego, Calif.) as per the manufacturer's instructions. The pan T cells were incubated in media alone or media containing serial dilutions of the anti-CD3 scFv-Fc constructs for one hour at 4° C. Commercially available SP34-2 antibody was used as positive controls while untreated cultures were used as negative controls. Following incubation with the anti-CD3 scFv constructs, the cells were washed and stained with a panel of conjugated antibodies specific for CD4, CD8, and IgG-Fc. The samples were acquired on a flow cytometer and analyzed using FlowJo version 10.1 software.
row,Binder,EC50 (read off the curve) [µg/mL]
1,B1,~1
2,B11,~2

# Target: T3, cynomolgus monkey CD3 expressed on T …
# Assay: flow cytometry on cynomolgus T cells
# Experimental: as §3
row,Binder,EC50 [nM]
1,B1,1.4
2,B2,172
3,B3,2.5
4,B4,104
5,B5,3.4
6,B6,9.3
7,B15,7
8,B7,16.3
9,B8,1.6
10,B9,40.7
11,B10,7.1
12,B11,1.9
13,B12,2.4

# Target: T2, Recombinant CD3epsilon/delta Fc fusion …
# Assay: SPR (ProteOn XPR36), CD3epsilon/delta Fc fusion captured on anti-Fc chip, variant injected for 240 s; kinetic constants printed above the sensorgrams
# Experimental: as §2
Binder,Kd [nM],koff [s⁻¹],kon [M⁻¹ s⁻¹]
B1,0.117,0.000163,1.39e+06
B8,3.12,0.00382,1.22e+06
B9,23,0.0225,977000
B10,6.62,0.00383,578000
B11,3.03,0.00242,798000

# Target: T1, human CD3 expressed on T cells (Jurkat …)
# Assay: cell ELISA on CD3+ Jurkat cells
# Experimental: Cells were centrifuged and seeded in a 96-well filter plate in 50% complete culture medium/50% Blocking buffer. Equal volumes of 2× anti-CD3 scFv-Fc constructs or controls were added to cells and incubated for 1 hour. The plate was washed 4 times using vacuum filtration. An HRP-conjugated anti-human IgG Fc gamma specific secondary antibody was added to the wells and further incubated for 1 hour. The plate is washed 7 times by vacuum filtration followed by the addition of TMB substrate at room temperature. The reaction was stopped by adding 1 M sulfuric acid and supernatant was transferred into a clear 96-well plate. Absorbance (450 nm) was read on a Spectramax 340PC plate reader with path-check correction. Binding of the different scFv-Fc constructs to Jurkat cells and the apparent binding affinities are shown in FIG. 7 and Table 7, respectively.
row,Binder,EC50 [nM]
1,B1,0.34
2,B2,2.57
3,B3,~36100
4,B4,~32.8
5,B13,2.61
6,B5,1.72
7,B6,3.47
8,B14,0.99
9,B8,0.65
10,B9,3.96
11,B10,1.45
12,B11,1.35
13,B12,3.09
